Results taken from article PMC9691602.

What was measured:
[1] = target: AcrIF24 (P. aeruginosa prophage); test: SEC-SAXS
[2] = target: AcrIF24 (P. aeruginosa prophage); test: cryo-EM structure

stoichiometry N [1]: 2 | stoichiometry N [2]: 2
Substance: AcrIF24 (natural protein)
